B1: human creatine kinase M subunit (wild-type) (enzyme)
chain: not shown
notes: One subunit (monomer) that associates into dimers; Tested in crude detergent extracts of transfected COS cells; also called M creatine kinase; M CK

What was measured:
[1] = biological target: the molecule itself; assay: nondenaturing electrophoresis of extracts of COS cells cotransfected with M, mutant M and B constructs (dimer formation)
[2] = biological target: B1; assay: nondenaturing electrophoresis of extracts of COS cells cotransfected with all three constructs
[3] = biological target: the molecule itself; assay: nondenaturing electrophoresis of extracts of COS cells cotransfected with M, B and lys⁻M constructs

| Binder | binding result [1] | binding result [2] | binding result [3] |
| --- | --- | --- | --- |
| B1 | binds |  |  |
| human creatine kinase B subunit (wild-type) (enzyme, One subunit (monomer) that associates into dimers; Tested in crude detergent extracts of transfected COS cells; also called B creatine kinase; B CK) not shown |  | binds | binds |

From patent publication EP0571085A1 (BAYLOR COLLEGE OF MEDICINE, dated 1993)
